The target in series [1] is full-length C. elegans TRPML1 (CUP-5), WT (C. elegans). As to the kind of experiment: cryo-EM structure.
The series “crystal structure” deals with the molecule itself. Kind of series: crystal structure.
In series [2] the target is T1, human TRPML1 protein (SDS-PAGE, data not shown) (human), Q9GZU1.
T1 chain: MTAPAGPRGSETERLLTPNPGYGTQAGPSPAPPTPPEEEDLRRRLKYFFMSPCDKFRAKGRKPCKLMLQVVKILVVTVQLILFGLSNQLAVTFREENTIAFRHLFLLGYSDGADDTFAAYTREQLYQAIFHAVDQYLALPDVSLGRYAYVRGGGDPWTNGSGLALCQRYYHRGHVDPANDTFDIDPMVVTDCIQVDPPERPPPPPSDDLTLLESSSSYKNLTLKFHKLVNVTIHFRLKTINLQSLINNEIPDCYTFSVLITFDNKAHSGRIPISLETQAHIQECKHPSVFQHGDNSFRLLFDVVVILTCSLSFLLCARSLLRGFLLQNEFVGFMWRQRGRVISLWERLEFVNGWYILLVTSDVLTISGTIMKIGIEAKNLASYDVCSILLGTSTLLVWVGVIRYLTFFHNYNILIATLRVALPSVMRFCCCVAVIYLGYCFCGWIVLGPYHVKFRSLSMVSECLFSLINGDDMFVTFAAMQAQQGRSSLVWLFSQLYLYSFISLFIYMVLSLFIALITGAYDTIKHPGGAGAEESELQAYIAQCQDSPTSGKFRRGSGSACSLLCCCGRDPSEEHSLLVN
As to the kind of experiment: reducing SDS-PAGE. The note with it: remark: other sources report otherwise.

What is called stoichiometry N is the number of molecules, sites or subunits per partner or assembly. In turn, “full-length C. elegans TRPML1 (CUP-5), WT (natural protein)” had a stoichiometry N in series [1] of 4.

B1: human TRPML1 I-II linker (G84-S296) (domain or fragment, UniProt Q9GZU1 84-296, looked up)
chain: GLSNQLAVTFREENTIAFRHLFLLGYSDGADDTFAAYTREQLYQAIFHAVDQYLALPDVSLGRYAYVRGGGDPWTNGSGLALCQRYYHRGHVDPANDTFDIDPMVVTDCIQVDPPERPPPPPSDDLTLLESSSSYKNLTLKFHKLVNVTIHFRLKTINLQSLINNEIPDCYTFSVLITFDNKAHSGRIPISLETQAHIQECKHPSVFQHGDNS
As for B1, the “stoichiometry N” value in “crystal structure” stood at 4.

B2: human TRPML1 protein (SDS-PAGE, data not shown), Q9GZU1 1-580 (natural protein)
chain: T1 chain
In the case of B2, the stoichiometry N in series [2] was found to be 4.

The record behind these values is publication PMC5336481 (Nature structural & molecular biology, 2017).
